In patent US20220348664A1:

Legend:
[1] = target: human PD-L1 ECD with mouse Fc tag (W315-hPro1.ECD.mFc) (human) (UniProt Q9NZQ7); test: ELISA, plate coated with human PD-L1 ECD-mFc, HRP anti-human IgG detection
[2] = target: cynomolgus PD-L1 ECD with His tag (W315-cynoPro1.ECD.His) (cynomolgus) (UniProt G7PSE7); test: ELISA, plate coated with cynomolgus PD-L1 ECD-His, HRP anti-human IgG detection
[3] = target: mouse PD-L1 ECD with mouse Fc tag (W315-mPro1.ECD.mFc) (mouse) (UniProt Q9EP73); test: ELISA, plate coated with mouse PD-L1 ECD-mFc, HRP anti-human IgG detection
mouse PD-L1 ECD with mouse Fc tag (W315-mPro1.ECD.mFc) (mouse), sequence (Q9EP73 19-239): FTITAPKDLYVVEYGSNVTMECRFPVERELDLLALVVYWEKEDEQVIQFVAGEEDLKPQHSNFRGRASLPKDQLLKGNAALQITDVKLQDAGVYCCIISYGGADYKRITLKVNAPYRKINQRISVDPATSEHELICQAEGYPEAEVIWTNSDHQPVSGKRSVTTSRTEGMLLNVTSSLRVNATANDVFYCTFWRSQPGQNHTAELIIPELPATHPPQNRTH

[4] = target: human PD-L1, full length, on CHO-K1 cells (W315-CHO-K1.hPro1.C11) (human) (UniProt Q9NZQ7); test: FACS on human PD-L1-expressing CHO-K1 cells, PE anti-human IgG detection
human PD-L1, full length, on CHO-K1 cells (W315-CHO-K1.hPro1.C11) (human), sequence (Q9NZQ7 19-290): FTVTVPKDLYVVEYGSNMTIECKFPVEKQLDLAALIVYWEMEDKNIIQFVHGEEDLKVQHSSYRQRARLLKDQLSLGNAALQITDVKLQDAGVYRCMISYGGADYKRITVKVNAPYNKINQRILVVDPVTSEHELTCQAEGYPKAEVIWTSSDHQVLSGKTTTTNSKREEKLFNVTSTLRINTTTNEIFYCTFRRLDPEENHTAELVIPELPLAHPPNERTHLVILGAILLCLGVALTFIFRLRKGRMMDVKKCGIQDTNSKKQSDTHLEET

[5] = target: cyno PD-L1 protein (SPR analyte) (cynomolgus) (UniProt G7PSE7); test: SPR (Biacore 8K), antibody captured on anti-human IgG Fc chip, antigen as analyte, 1:1 fit
cyno PD-L1 protein (SPR analyte) (cynomolgus), sequence (G7PSE7 entry or part of it): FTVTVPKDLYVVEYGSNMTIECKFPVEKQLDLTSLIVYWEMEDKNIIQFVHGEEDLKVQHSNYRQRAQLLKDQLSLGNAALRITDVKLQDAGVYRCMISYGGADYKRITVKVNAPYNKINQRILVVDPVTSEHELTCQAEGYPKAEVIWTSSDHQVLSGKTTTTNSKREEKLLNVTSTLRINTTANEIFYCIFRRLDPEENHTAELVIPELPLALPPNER

[6] = target: mouse PD-L1 protein (SPR analyte) (mouse) (UniProt Q9EP73); test: as above
mouse PD-L1 protein (SPR analyte) (mouse), sequence (Q9EP73 19-239 limits assumed): as the sequence (Q9EP73 19-239) above

[7] = target: human PD-L1 protein (SPR analyte) (human) (UniProt Q9NZQ7); test: as above
human PD-L1 protein (SPR analyte) (human), sequence (Q9NZQ7 19-238 limits assumed): as the sequence (G7PSE7 entry or part of it) above, with T33A, S34A, N62S, Q68R, R82Q, L173F, A185T, I192T, L215H counted along it

[8] = target: human LAG-3 ECD with mouse Fc tag (W339-hPro1.ECD.mFc) (human) (UniProt P18627); test: FACS competition, blocking of mFc-tagged LAG-3 binding to MHC-II on Raji cells (competitor MHC-II)
human LAG-3 ECD with mouse Fc tag (W339-hPro1.ECD.mFc) (human), sequence (P18627 23-450): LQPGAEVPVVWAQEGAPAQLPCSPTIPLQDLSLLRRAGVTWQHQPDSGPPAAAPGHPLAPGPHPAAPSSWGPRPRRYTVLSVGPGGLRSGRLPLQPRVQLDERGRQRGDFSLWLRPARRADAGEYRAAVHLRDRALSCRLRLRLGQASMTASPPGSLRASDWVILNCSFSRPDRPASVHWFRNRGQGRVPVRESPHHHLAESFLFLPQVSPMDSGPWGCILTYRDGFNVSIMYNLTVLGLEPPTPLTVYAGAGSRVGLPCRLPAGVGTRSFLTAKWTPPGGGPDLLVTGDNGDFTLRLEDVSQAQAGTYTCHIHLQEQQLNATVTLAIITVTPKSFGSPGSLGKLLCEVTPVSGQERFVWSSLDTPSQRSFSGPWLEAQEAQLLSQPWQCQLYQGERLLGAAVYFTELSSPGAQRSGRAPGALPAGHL

[9] = target: cynomolgus LAG-3 protein (Sino-90841-C08H) (cynomolgus); test: ELISA, cynomolgus LAG-3-His captured by coated anti-His, HRP anti-human IgG detection
[10] = target: human LAG-3 ECD with mouse Fc tag (W339-hPro1.ECD.mFc) (human) (UniProt P18627); test: ELISA, human LAG-3 ECD-mFc captured by coated goat anti-mouse F(ab)2, HRP anti-human IgG detection
[11] = target: human LAG-3 ECD with mouse Fc tag (W339-hPro1.ECD.mFc) (human) (UniProt P18627); test: ELISA competition, blocking of mouse Fc-tagged LAG-3 binding to coated human FGL-1 (competitor FGL-1)
[12] = target: human LAG-3 ECD with mouse Fc tag (W339-hPro1.ECD.mFc) (human) (UniProt P18627); test: FACS competition: antibody pre-incubated with mFc-tagged LAG-3, binding of LAG-3 to MHC-II on Raji cells detected with anti-mouse IgG Fc-PE; Top is the upper plateau of the LAG-3 signal
[13] = target: human LAG-3, full length, on cells (W339-FlpIn293.hPro1.A3) (human) (UniProt P18627); test: FACS on human LAG-3-expressing 293 cells, PE anti-human IgG detection
human LAG-3, full length, on cells (W339-FlpIn293.hPro1.A3) (human), sequence (P18627 23-525): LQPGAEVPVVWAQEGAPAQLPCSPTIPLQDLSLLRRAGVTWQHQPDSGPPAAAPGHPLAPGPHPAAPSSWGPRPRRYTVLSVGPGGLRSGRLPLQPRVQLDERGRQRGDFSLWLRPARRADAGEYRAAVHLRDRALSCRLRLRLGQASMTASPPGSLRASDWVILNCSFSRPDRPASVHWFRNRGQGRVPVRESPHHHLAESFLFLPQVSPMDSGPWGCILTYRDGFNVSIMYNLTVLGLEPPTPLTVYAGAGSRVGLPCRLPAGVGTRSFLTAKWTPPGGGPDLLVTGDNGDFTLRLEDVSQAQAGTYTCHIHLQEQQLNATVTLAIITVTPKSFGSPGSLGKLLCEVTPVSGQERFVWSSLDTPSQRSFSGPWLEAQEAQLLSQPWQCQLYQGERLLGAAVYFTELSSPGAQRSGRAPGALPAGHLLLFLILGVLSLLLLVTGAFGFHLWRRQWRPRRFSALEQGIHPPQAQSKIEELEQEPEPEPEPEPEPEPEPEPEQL

[14] = target: human LAG-3 protein (SPR analyte) (human) (UniProt P18627); test: SPR (Biacore 8K), antibody captured on anti-human IgG Fc chip, antigen as analyte, 1:1 fit
human LAG-3 protein (SPR analyte) (human), sequence (P18627 23-450 limits assumed): as the sequence (P18627 23-450) above

human PD-L1 ECD with mouse Fc tag (W315-hPro1.ECD.mFc) (human), sequence (Q9NZQ7 19-238): as the sequence (G7PSE7 entry or part of it) above, with T33A, S34A, N62S, Q68R, R82Q, L173F, A185T, I192T, L215H counted along it
cynomolgus PD-L1 ECD with His tag (W315-cynoPro1.ECD.His) (cynomolgus), sequence (G7PSE7 entry or part of it): as the sequence (G7PSE7 entry or part of it) above

EC50 [1] [nM] | Top [1] [OD450-OD540] | EC50 [2] [nM] | Top [2] [OD450-OD540] | EC50 [3] [nM] | EC50 [4] [nM] | Top [4] [MFI] | Kd [5] [nM] | Kd [6] [nM] | Kd [7] [nM] | IC50 [8] [nM] | EC50 [9] [nM] | EC50 [10] [nM] | IC50 [11] [nM] | Top [12] [MFI] | EC50 [13] [nM] | Top [13] [MFI] | Kd [14] [nM] | koff [14] [s⁻¹] | kon [14] [M⁻¹ s⁻¹] | Substance
0.035 | 2.45 | 0.053 | 1.98 | 0.04 | 0.208 | 8790 | 6.29 | 2.31 | 0.0794 |  |  |  |  |  |  |  |  |  |  | WBP315-BMK8 (Atezolizumab) (antibody)
 |  |  |  |  |  |  |  |  |  | 1.88 | 3.79 | 0.22 | 6.37 | 2910 | 0.237 | 1180 | 0.62 | 0.000315 | 508000 | WBP339-BMK1 (25F7) (antibody)
